Target: human CD4 on cells (human) (UniProt P01730)
Assay: cell-based or functional assay

“CE9γ4λK, chimeric anti-CD4 antibody with human gamma 4 heavy chain constant domain and human kappa light chain constant region” gave an MLR IL-2 Production (IC50) of 20 ng/mL and an MLR Proliferation (IC50) of 20 ng/mL.
